From article PMC12700550, “DLL4^+ neutrophils promote Notch1-mediated endothelial PANoptosis to exacerbate acute lung injury in sepsis” (The Journal of Clinical Investigation, 2025)
Several values for one entry are separate records, joined by “and”; a condition that tells them apart may be missing. Equal values may be shown once.

Legend:
ZBP1 = ZBP1 in pulmonary endothelial cells (CD31) of CLP mice, confocal immunofluorescence; type: in vivo, mouse; details: sepsis, 10 mg/kg NDI, 20 h
Protocol: Sepsis was induced in mice by cecal ligation and puncture (CLP) as described previously ([45], [46]). Mice were anesthetized with isoflurane to a surgical plane and placed in a supine position. CLP was performed through a midline laparotomy. The abdomen was shaved and disinfected. Through a 2 cm midline incision, the cecum was exposed and then ligated with a 4-0 silk suture 1 cm proximal from the distal cecal extremity. For 20-hour CLP experiments, the cecum was punctured twice with a 22-gauge needle. A small amount of cecal content was extruded through both holes, and the ligated cecum was returned to the peritoneal cavity. The wound was closed in layers. For 10-day sepsis survival studies, the cecum was punctured once with a 22-gauge needle. A small amount of cecal content was extruded. Mice were allocated to the vehicle and adoptive transfer of DLL4^+ neutrophils or DLL4^– neutrophils groups. Adoptive transfer mice received a retro-orbital injection of 1 × 10^6 cells per mouse DLL4^+ neutrophils or DLL4^– neutrophils in […] phosphate-buffered saline (PBS) immediately after abdominal closure in both the 20-hour experiments and the survival study. […]
For immunohistochemistry staining, paraffin-embedded lung tissue sections were deparaffinized and dewaxed in xylene and a series of ethanol. […] The images were analyzed with ImageJ Fiji (NIH).

[1] = system: DLL4 expression on TLR4^–/– BMDNs; assay: Frequency of DLL4^+ neutrophils, TLR4^–/– mouse BMDNs, flow cytometry; type: cell-based; details: 12 h
Protocol: Male 8-week-old C57BL/6 mice were purchased from Charles River Laboratories. TLR4^–/– mice were obtained from Kevin Tracey (Feinstein Institutes for Medical Research). Mice were housed at approximately 23°C with a 12-hour light/12-hour dark cycle and given standard laboratory food and water ad libitum. All experiments were performed following the NIH guidelines for experimental animals. The animal protocol was approved by the Feinstein Institutes’ Institutional Animal Care and Use Committee. Animals were randomly assigned to the sham, vehicle, or adoptive transfer groups.
Mice were anesthetized by 2% isoflurane inhalation, and the femora and tibiae were dissected. […] The purity of the sorted neutrophils was assessed by staining of the cells with APC-Ly6G antibody (clone 1A8, BioLegend) using a BD LSRFortessa flow cytometer (BD Biosciences).
In the time course experiments, BMDNs (1 × 10^6) were stimulated with eCIRP (1 μg/mL) for 2, 4, 6, and 12 hours. […] Single-cell suspensions were then stained with APC-conjugated anti–mouse Ly6G (clone 1A8, catalog 127614, BioLegend) and PE-conjugated anti-DLL4 (clone HMD4-1, catalog 130807, BioLegend), and analyzed by flow cytometry (BD LSRFortessa, BD Biosciences) to detect DLL4^+ neutrophils (Ly6G^+DLL4^+). […] The isolated lung cells were counted using a microscope (Eclipse TS100, Nikon). […]

Molecule	effect on ZBP1 in pulmonary endothelial cells, immunostaining (ZBP1)	frequency of DLL4^+ neutrophils (Figure 1E) ([1]; TLR4^–/– (KO) BMDNs, 1 μg/mL eCIRP, individual replicates)	eCIRP-mediated induction of DLL4^+ neutrophils ([1]; TLR4^–/– neutrophils, 1 μg/mL)
ECAGSPCHNGGTCEDGI [NDI]	reduced ZBP1 expression in pulmonary endothelial cells in sepsis	–	–
eCIRP: extracellular cold-inducible RNA-binding protein; recombinant murine, produced in our laboratory (protein, UniProt P60824 1-172, looked up) Cold-inducible RNA-binding …: MASDEGKLFVGGLSFDTNEQALEQVFSKYGQISEVVVVKDRETQRSRGFGFVTFENIDDAKDAMMAMNGKSVDGRQIRVDQAGKSSDNRSRGYRGGSAGGRGFFRGGRSRGRGFSRGGGDRGYGGGRFESRSGGYGGSRDYYASRSQGGSYGYRSSGGSYRDSYDSYATHNE	–	1.63% and 1.97% and 2.11% and 0.98% and 0.25% and 1.21%	significantly abrogated in TLR4^–/– neutrophils
